In the nanobody polyreactivity screen of Harvey et al. (2022):

Assay: yeast display, Sf9 membrane polyspecificity reagent, FACS + sequencing; frameworks hold sequencing errors
Method in brief: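 Galactose-induced (36–48 hours) yeast carrying a synthetic nanobody display library were exposed to 10% biotinylated, detergent-solubilized Sf9 membrane reagent at 4 °C for 1 hour. FACS followed streptavidin microbead enrichment, using low and high (top ~1%) gates for expression (anti-HA) and reagent binding (streptavidin). Colony PCR, MiSeq 2 × 250 sequencing and CDR-length filtering followed. Labels for polyreactivity reflect the gate of origin.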

Sequence | polyreactivity (PSR sort gate)
QVQLEESGGGLVQAGGSLRLSCAASGITSPAYAMGWYRQAPGKEREFVAAISSSGGSTYYADSVKGRFTISRDNAKNTVYLQMNSLKPEDTAVYYCAVRGRISSVSRYGYWGQGTQVTVSS | high polyreactivity
QVQLVESGGGLVQAGGSLRLSCAASGGTIEYYAMGWYRQAPEKERELVAAISVSGGRTYYADSVKGRFTISRDNAKNTVYLQMNSLKPEDTAVYYCATDSRLWGQGTQVTVSS | high polyreactivity
QVQLVESGGGLVQAGGSLRLSCAASGSIFFRNAMGWYRQAPGKERELVATIDWSGGYTDYADTVKGRFTISRDNAKNTVYLQMNSLKPEETAVYYCATGRYDRYYNFWYYYWGQGPQVTVSS | high polyreactivity
QVQLVESGGGLVQAGGSLRLSCAASGSIFGINAMGWYRQAPGKERELVAAITNSGANTYYADSVKGRFTISRDNAKNTVYLQMNSLKPEDTAVYYCATDFIGVIYDYWGQGTQVTVSS | low polyreactivity
QVQLVESGGGLVQAGGSLRLSCAASGSIFDLNAMGWYRQAPGKERELVAAISKSGGSTYYADSVKGRFTISRDNAKNTVYLQMNSLKPEDTAVYYCAARYHEPGYSYKFWGQGTQVTVSS | low polyreactivity
QVQHVESGGCLVQAGGSLRLSCAASGITFEWYAMGWYRQAPGKESELVADITSGDSTNYADSVKGRFTISRDNAQNTVYLQMNSLKPEDTAVYYWAATFIGQFFSWYYYWGQGTQVTVSS | low polyreactivity
QVQLVESGGGLVQAGGSLRLSCAASGSTFVYYAMGWYRQAPGKERELVAVISDDGGTYYADSVKGRFTISRDNAKNTVYLQMNSLKPEDTAVYYCAADPYWFFPHYDSWGQGTQVTVSS | low polyreactivity
QVQLVESGGGLVQAGGSLRVSCAASGRIFASYAMGWYRQAPGKERELVAAISLSGGSTYYADSVKGRFTISRDNAKNTVFLQMNSLKPEDTAVYYCAAKNYRRYRDYYWGQGTQVTVSS | high polyreactivity
QVQLVESGGGLVQAGGSLRLSCAASGSIFKANAMGWYRQAPGKESELVATITSSGTRTYYADSVKGRFTISRDNAKNTVYLQMNSLKPEDTAVYYCNARAYPYQRGRYGYWGQGTQVTVSS | high polyreactivity
QVQLVESGGGLVQAGGSLRLSCAPSGRIFKRNTMGWYRQAPGKVRELVAAITGSSGSTYYADSVKGRFTISRDNAKNNVLLQMNSLKPEDTAVYYCNTVRSVYQYWPYNYWGQGTQETVSS | high polyreactivity
QVQLVESGGGLVQAGGSLRLSCAASGSTFGWNTMGWYRQAPGKERELVAAISWYGDRTYYADSVKGRFTISRDNAKNTVYLQMNSLKPEDTAVYYCARQRYYGYYYWGQGTQVTVSS | high polyreactivity
QVQLVESGGGLVQAGGSLRLSCAASGFTYPPYAMGWYRQAPGKERELVAAISSAGSTKYADSVKGRFTISRDNAKNTVYLQMNSLKPEDTAVYYCAARWARSYDYWGQGTQVTVSS | low polyreactivity
QVQLVESGGGLVQAGGSLRLSCAASGFTFKYNVMGWYRQAPGKERELVSAISKRGGNTYYADSVKGRFTISRDIAKNTVYLQMNSLKPVDTAVYYCAADPTSPETSGQGYDYWGQGTQVTVSS | high polyreactivity
QVQLVESGGGLVQAGGSLRLSCAASGFIFFQYAMGWYRPAPGKERELVAAISGSGVTTYYADSVKGRFTISRDNAKNTVYLQMNSLKPDDTAVYYCNAGSVSDRQMDYWGQGTQVTVSS | low polyreactivity
QVQLVESGGGLVQAGGSLRLSCAASGSTFQYYAMGWYRQAPGKERELVAAISYSSGTTYYADSVKGRFTISRDNAKNTVYLQMNSLKPEDTAVYYCARPARYSYPTSTAFDYWGQGTQVTVSS | low polyreactivity
QVQLVESGGGLVQAGGSLRLSCAASGRIFDPYAMGWYRQAPGKERELVASNSWSGGRTYYADSVKGRFTISRDNAKNTVYLQMNSLKPEDTAVYYCAKVRAYTRLGLTVSMDYWGQGTQVTVSS | high polyreactivity
QVQRVESGGGLVQAGGSLRLSCAASGLTFDPKDMGWYRQAPGKERELVAAISWSSGSTYYADSVKGRFTISRDNAKNTVYLQMNSLKPEYTAVYYCAAYFTLLFGTELYDYDYWGQGTQVTVSS | high polyreactivity
QVQLVESGGGLVQAGGSLRLSCAASGRTFSYSAMGWYRQAPGKERELVAAITGSGGRTYYADSVKGRFTISRDNAKNTVYLQMNSLKPEDTAVYYCAARYLYEGQLRPIRYYHYGYWGQGTQVTVSS | high polyreactivity
QVQLVESGGGLVQAGGSLRLSCAASGFIFKRYAMGWYRQAPGKERELVAVITRSGGSTYYADSVKGRFTISRDNAKNTVYLQMNSLKPEDTAVYYCAVDFTDRGYDYWGQGTQVTVSS | high polyreactivity
QVQLVESGGGLVQAGGSLRLSCAASGIIFYGKAMGWYRQAPGKERELVAAITWSGGSTYYADSVKGRFTISRDNAKNTVYLQMNRLKPEDTAVYYCAALSGAHEHFVEYDYWGQGTQVTVSS | low polyreactivity
QVQLVESGGGLVQAGGSLRLSCADSGRIFDFNAMGWYRQAPGKERELVASIDWSGGNTYYADSVKGRFTISRDNAKNTVYVQMNSLKPEDTAVYYCNRDFWGVWEYDYWGQGTQVTVSS | low polyreactivity
QVQLVESGGGIVQAGGSLRLRCAASGFTFSRNAMVWYRQAPGKERELVAAITWSGGRTYYADSVKGRFTISRDNAKNTVYLQMNSLKPEDTAVYYCAARKYHLRSAYDYWGQGTKVTVSS | low polyreactivity
QVQLVESGGGLVQAGGSLRLSCAASGSTFTQYAMGWYRQEPGKERELVAAITGSGGRTYYADSVKGRFTISRDNAKNTVYLQMNSLKPEDTAVYYCAARDKFGGYYHWGQGTQVTVSS | high polyreactivity
QVQLVESGGGLVQAGGSLRLSCAASGSTFGLYTMGWYRQAPGKERELVASISIGGSTYYADSVKGRFTISRDNAKNTVYLQMNSLKPEDTAVYYCAADVKRDRVWGGDYWGQGTQVTVSS | low polyreactivity
QVQLVESGGGLVQAGGSLRLSCAASGFTFNNNAMGWYRQAPGKERELVAAITSSGGSTRYADSVKGRFTISRDNAKNTVYLQMNSLKPEDTAVYYCNAARQRKYSNWYDYWGQGTQVTVSS | high polyreactivity
QVQLVESGGGLVQAGGSLRLSCAASGRTFKSYAMGWYRQAPGKERELVAAISYSGGSTYYADSVKGRFTISRDNAKNTVYLQMNSLKPEDTAVYYCNVVSKVIRGLSGDGYWGQGTQVTVSS | high polyreactivity
QVQLVESGGGLVQAGGSLRLSCAASGLIFGVNAMGWYRQAPGKEREFVARITRSGSSTYYADSVKGRFTISRDNAKNTVYLQMNSLKPEDTAVYYCAVDLFYKYDWGQGTQVTVSS | high polyreactivity
QVQLVESGGGLVQAGGSLRLSCAASGRTFGYNAMGWYSQAPGKERELVAAISRSGGRTYYADSVKGRFTISRDNAKNTVYLQMNSLKPEDTAVYYCAAESYHRGYDYWGQGTQVTLSS | high polyreactivity
QVQLVESGGGLVQAGGSLRLSCADSGITFGVYAMGWYRQAPGKERELVAAISRRGASTYYADSVKGRFTISRDNAKNTVYLQMNSLKPEDTAVYYCAAYLARRQYDYWGQGTQVTVSS | high polyreactivity
QVQLVESGGGLVQAGASLRLSCAASGLIFVSNAMGWYRQAPGKERELVAAISWSGSRTYYADSVKGRFTISRDNAKINVYLHMTSLKPEDTAVFYCNAVRRGLPVVGAYDYWGQGTQVTVSS | high polyreactivity
